# Laboratory results published in PMC7665192, “A natriuretic peptide from Arabidopsis thaliana (AtPNP-A) can modulate catalase 2 activity” (Scientific Reports, 2020).
# Positions of bridges follow the written chain, without caps; N, C: chain ends. No end group written: not given here.
# B1: synthetic peptide containing the active region of AtPNP-A (amino acids 33-66) (peptide)
# peptide: PYTRSACYGTQRETLVVGVKNNLWQNGRACGRRY
# modifications: disulfide 7-30 (inferred); also: synthesized with or without C-terminal biotin
# notes: active region of Arabidopsis thaliana plant natriuretic peptide A (AtPNP-A), amino acids 33-66; also called pAtPNP-A; AtPNP-A peptide; source: synthetic peptide (GenScript, purity > 95%)
# B2: rAtPNP-A: N-terminally 6xHis-tagged AtPNP-A expressed in BL21 (DE3) One Shot E. coli cells (protein)
# chain: AQGKAVYYDPPYTRSACYGTQRETLVVGVKNNLWQNGRACGRRYRVRCIGATYNFDRACTGRTVDVKVVDFCREPCNGDLNLSRDAFRVIANTDAGNIRVVYTPI
# modifications: left off: His6, N-terminal, state not stated
# notes: N-terminally 6xHis-tagged AtPNP-A expressed in BL21 (DE3) One Shot E. coli cells
# B3: CeYFP-AtPNP-A: C-terminal (CeYFP) fragment of eYFP followed by AtPNP-A coding region (protein)
# chain: AQGKAVYYDPPYTRSACYGTQRETLVVGVKNNLWQNGRACGRRYRVRCIGATYNFDRACTGRTVDVKVVDFCREPCNGDLNLSRDAFRVIANTDAGNIRVVYTPI
# modifications: left off: CeYFP (C-terminal fragment of eYFP), N-terminal, kept
# B4: NeYFP-fused AtPNP-A: N-terminal (NeYFP) fragment of eYFP followed by AtPNP-A coding region (protein)
# chain: AQGKAVYYDPPYTRSACYGTQRETLVVGVKNNLWQNGRACGRRYRVRCIGATYNFDRACTGRTVDVKVVDFCREPCNGDLNLSRDAFRVIANTDAGNIRVVYTPI
# modifications: left off: NeYFP (N-terminal fragment of eYFP), N-terminal, kept
# Key:
# CAT2 transcript = conditions: exogenous application; cited from earlier work
# Description: It is also conceivable that modulation of CAT2 activity by AtPNP-A may not only have implications for plant biotic stress tolerance but may also result in changes in responses to abiotic stress. Activity of CAT2 is required for decomposition of photorespiration-derived H2O2 preventing redox perturbation under ambient growth conditions[59] while CAT2 deficiency causes a defective photorespiration phenotype including suppressed growth[58],[59] and accumulation of H2O2 in leaves. During senescence suppression of CAT2 function, mediated by G-BOX BINDING FACTOR1 (GBF1)[76], decreases CAT2 activ ...
# [1] = molecular target: T1, bovine liver catalase (CAT) (bovine, UniProt P00432 1-527); experiment: SPR; Biacore T100, 20 °C; bovine liver CAT immobilised by amine coupling on a CM5 chip; pAtPNP-A at 3.78 μM and consecutive twofold dilutions, 11 injections, flow 100 μL/min; regeneration with glycine pH 2.0; kinetic fit with mass transfer term; conditions: both partners purified
# T1 construct: catalase from bovine liver, Sigma C-40; also called bovine CAT; CAT from bovine liver; source: bought: Sigma (C-40)
# T1 sequence (looked up): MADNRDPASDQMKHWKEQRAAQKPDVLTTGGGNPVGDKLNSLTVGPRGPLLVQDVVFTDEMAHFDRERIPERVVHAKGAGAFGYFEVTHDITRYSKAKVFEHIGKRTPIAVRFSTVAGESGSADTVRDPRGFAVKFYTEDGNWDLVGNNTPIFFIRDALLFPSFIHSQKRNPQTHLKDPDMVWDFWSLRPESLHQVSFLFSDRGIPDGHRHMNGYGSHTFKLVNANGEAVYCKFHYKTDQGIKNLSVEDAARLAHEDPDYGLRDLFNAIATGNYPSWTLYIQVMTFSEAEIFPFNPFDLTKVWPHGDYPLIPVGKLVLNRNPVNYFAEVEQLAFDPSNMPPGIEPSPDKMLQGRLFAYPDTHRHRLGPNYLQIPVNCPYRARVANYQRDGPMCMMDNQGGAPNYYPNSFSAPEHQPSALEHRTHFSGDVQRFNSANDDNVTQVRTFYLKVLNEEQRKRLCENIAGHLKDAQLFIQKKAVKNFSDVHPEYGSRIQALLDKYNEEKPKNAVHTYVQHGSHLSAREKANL
# rCAT2 [2] = experiment: SPR of CAT2 and AtPNP-A recombinant proteins, CM5 chip, both configurations; assay type: binding, Arabidopsis thaliana; conditions: amine coupling, 20 °C
# Experimental: N-terminally 6xHis-tagged AtPNP-A and CAT2 proteins were expressed in BL21 (DE3) One Shot E. coli cells (Life Technologies), purified by affinity chromatography with Ni–NTA beads (Qiagen) and HisTrap HP column (GE Healthcare Lifesciences) as described in[21]. The purity of preparations was verified on 12.5% SDS-PAGE, stained with Coomassie Brilliant Blue (Bio-Rad). Protein identities were confirmed in MS analysis, and protein concentration was determined according to the method of Bradford using BSA as a standard.
# SPR experiments were performed at 20 °C on Biacore T100 instrument operated using Biacore T100 control software (version 2.0.2, GE Healthcare Lifesciences) using Series S CM5 or NTA sensor chips as described in[21]. Kinetic analyses were performed at the flow of 100 μL min^−1 with pAtPNP-A (at 3.78 μM and consecutive twofold dilutions; 11 injections included) employed as a ligand and bovine liver CAT (C-40; Sigma) used as an analyte and immobilized on the active surface of the Series S CM5 sensor chip with amine coupling kit, while the surface regeneration was done with solution of glycine, pH 2.0, and the final sensorgram was generated with Scrubber (BioLogic Software Pty Ltd).
# Supplementary Figure S3. In vitro association of AtPNP-A and CAT2 recombinant proteins.
# (a) Recombinant protein preparations used in SPR analyses. […]
# [3] = test system: A. thaliana (Col-0) mesophyll cell protoplasts; experiment: Mesophyll cell protoplast swelling (volume); assay type: cell-based, Arabidopsis thaliana; conditions: 100 nM peptide or 1 μg mL^−1 rAtPNP-A, 0.4 M mannitol, 20 min, room temperature, n = 50, P < 0.0001
# Description: Peptides containing amino acid sequence of the active region of AtPNP-A and corresponding scrambled peptides, having the same amino acid composition but in a randomized order (Fig. 1a), with or without C-terminal biotin tag, were synthesized by GenScript (Piscataway, USA) at the purity level > 95% verified with HPLC and their biological activity was verified as described previously.
# Figure 1 Biologically active peptide containing the active region of AtPNP-A protein binds to CAT2. (a) Domain organization of AtPNP-A and the amino acid sequences of C-terminally biotinylated peptides used in affinity chromatography-based experiments—a peptide containing the active site of AtPNP-A (indicated as pAtPNP-A) or the corresponding scrambled peptide (indicated as pScr). Cysteine residues forming a disulfide bond, characteristic to natriuretic peptide (NP)-like molecules, are underlined. SP, signal peptide. (b) Assaying biological activity of the AtPNP-A peptide (pAtPNP-A) and purified recombinant protein (rAtPNP-A). […] In each treatment, 50 randomly selected protoplasts with diameter > 20 µm were included in quantitative analysis (scale bar = 20 µm). Protoplast volume was measured and the data obtained from an exemplar experiment are plotted. […]
# CAT = experiment: Total CAT activity in protein extracted from WT seedlings; assay type: biochemical, Arabidopsis thaliana; conditions: 1 nM
# Experimental: (§1) Enzymatic activity of CAT isozymes and total CAT activities of protein extracted from WT and atpnp-a or cat2-2 mutant lines, when indicated sprayed with 1 nM pAtPNP-A or pScr 20 min before harvesting, were determined zymographically and spectrophotometrically, as described in[56]. Relative quantification of intensity of bands corresponding to different CAT isoforms was performed with ImageJ version 1.48 (https://imagej.nih.gov/ij/). Enzymatic activity of the rCAT2 in the presence of absence of 100 nM rAtPNP-A, pAtPNP-A or pScr were determined with the use of Amplex Red catalase assay kit (Invitrogen) according to the manufacturer’s instructions.
# (§2) Figure 3 AtPNP-A directly interacts with CAT2 to modulate its enzymatic activity in vitro. (a) Zymogram depicting changes in the enzymatic activity of CAT isoforms extracted from wild type (WT) or cat2-2 knockout mutant seedlings in response to 1 nM pAtPNP-A or pScr. Densitometric semi-quantification of bands corresponding to CAT2, normalized to the loading control (dark-coloured band on zymogram) for WT samples treated with 1 nM pAtPNP-A or pScr (mean ± SD, Student’s t-test, n = 3, P < 0.05). […] (b) Total CAT activity in protein extracted from WT seedlings assayed with Amplex Red catalase assay kit in the presence of 1 nM pAtPNP-A, rAtPNP-A, or pScr. […] (c) Enzymatic activity of rCAT2 in the presence of 100 nM pAtPNP-A, rAtPNP-A, or pScr.
# rCAT2 [4] = experiment: Enzymatic activity of rCAT2, Amplex Red catalase assay; assay type: biochemical, Arabidopsis thaliana; conditions: 100 nM, Amplex Red catalase assay kit; three independent experiments, P < 0.01
# Experimental: as §1, §2
# CAT2 = experiment: Bimolecular fluorescence complementation (BiFC); assay type: cell-based, Arabidopsis thaliana; conditions: chloroplasts of tobacco leaf protoplasts, NeYFP/CeYFP fusions, mean ± SEM, n = 30, P < 0.0001
# Description: The full-length A. thaliana AtPNP-A (At2g18660) coding region entry plasmid pENTRYAtPNP-A[46] and pCR8/GW-TOPOCAT2 were recombined separately with both pSITE-nEYFP-C1 [GenBank Accession Number GU734651] and pSITE-cEYFP-C1 [GenBank Accession Number GU734652] to create pNeYFP-AtPNP-A, pCeYFP-AtPNP-A, pNeYFP-CAT2 and pCeYFP-CAT2, respectively. Each plasmid has either the N-terminal (NeYFP) or C-terminal (CeYFP) fragment of eYFP followed by either AtPNP-A or CAT2 coding region driven by the 35S plant expression promoter. After sequence was confirmed each plasmid was transformed separately into Agrobacterium tumefaciens strain GV3101 (pMP90). Tobacco leaves were infiltrated as previously described in[50]. Briefly, A. tumefaciens strains grown in 2YT medium were harvested by centrifugation and resuspended in infiltration medium (10 mM MES pH 5.6, 10 mM MgCl2, 150 µM acetosyringone) to a final OD600 of 0.2. Equal volumes of infiltration media containing relevant BiFC strains were mixed and infiltrated into the underside of tobacco leaves using a needleless syringe. Leaves were harvested after 3 days to isolate protoplasts following[51] and then immediately imaged.
# BiFC images were captured at the La Trobe University LIMS BioImaging Facility using a LSM 510 confocal laser scanning microscope (Zeiss), with a × 40/1.2 water immersion objective. The natural red autofluorescence of chlorophyll was used as a marker for chloroplasts. Excitation/emission wavelengths were 488/505–530 nm for YFP and 561/650 nm long pass for red fluorescence. At least three images containing one or more protoplasts were taken for each of the plasmid construct combinations. Each image captured three separate filter scans, including YFP, red fluorescence and bright field. Post-processing of images was performed with ImageJ version 1.48 software (https://imagej.nih.gov/ij/). For each image the contrast for each panel was set at automatic contrast. A merged image was generated for reference with a 10 µm scale bar. The red fluorescence only panel was used to encircle ten chloroplasts as region of interest (ROI), then the YFP fluorescence (BiFC) calculated for each ROI was divided by the red fluorescence calculated for the same ROI. All BiFC/red fluorescence points were plotted using GraphPadPrism7 (GraphPadSoftware). Mean and standard error were calculated for each BiFC combination. All statistical analyses were performed using GraphPadPrism7.
# Figure 4 AtPNP-A interacts with CAT2 in vivo. […] Exemplar merged images of protoplasts isolated from a leaf infiltrated with different combinations of N- or C-terminally tagged CAT2 and AtPNP-A are shown. (g) BiFC/Red fluorescence chloroplast analysis with mean ± SEM in pink.
molecule,measurement,setting,value
O=C(O)c1ccccc1O [SA],CAT2 transcript,CAT2 transcript,Increases in CAT2 transcript
B1,koff,[1],0.000941 s⁻¹
same,kon,[1],10900 M⁻¹ s⁻¹
B2,SPR binding of recombinant AtPNP-A to CAT2,rCAT2 [2],bind specifically to CAT2
same,Protoplast swelling response (volume),[3],comparable to that elicited by an equimolar amount of the recombinant AtPNP-A (rAtPNP-A)
same,Total CAT activity of protein extracts,"CAT; WT seedling protein, Amplex Red kit, mean ± SD, n = 3, P < 0.05",elevated total CAT activity
same,H2O2 breakdown by WT seedling protein extract,"CAT; total protein extracted from WT seedlings, n = 3",more rapid H2O2 breakdown
same,In vitro enzymatic activity of rCAT2,rCAT2 [4],significantly enhanced
B3,"BiFC / Red fluorescence signal, interaction with CAT2",CAT2,significantly higher
same,"BiFC / Red fluorescence signal, interaction with CAT2",CAT2; listed as CeYFP-tagged AtPNP-A,greatest BiFC / Red fluorescence signal
B4,"BiFC / Red fluorescence signal, interaction with CAT2",CAT2,Lower BiFC/fluorescence signal
